Assay [1] deals with in vitro translated S38A wee1 (UniProt P47817). As to the kind of experiment: glutathione precipitation from Xenopus interphase egg extract with nuclei and MG132, wee1 Western blot. Background: In western blotting, separated proteins are transferred to a membrane and probed.
The target of assay [2] is in vitro translated wild-type wee1 (UniProt P47817). Described as above.

For the substance “GST-Tome-1 (as used in the wee1 binding assay in Xenopus egg extracts) (from UniProt P08515 1-218)”, in assay [1], the % of input wee1 precipitated was 2.5 % of input. The % of input wee1 pulled down in assay [2] is 25 % of input.

Turning to “GST-VCA (GST fusion with the C terminus of the actin nucleating scaffolding protein N-WASP) (from UniProt P08515 1-218)”, the % of input wee1 precipitated in assay [1] and in assay [2] was 8 % of input in each case.

Source of the values: US20050130175A1.
